Molecular target: Biotinylated RpoS (S. Typhimurium ATCC 14028S, UniProt D0ZVL4 1-330, biotin (EZ-Link-Biotin; sites not stated))
Assay: BLI

Sequence of Biotinylated RpoS (D0ZVL4 whole entry): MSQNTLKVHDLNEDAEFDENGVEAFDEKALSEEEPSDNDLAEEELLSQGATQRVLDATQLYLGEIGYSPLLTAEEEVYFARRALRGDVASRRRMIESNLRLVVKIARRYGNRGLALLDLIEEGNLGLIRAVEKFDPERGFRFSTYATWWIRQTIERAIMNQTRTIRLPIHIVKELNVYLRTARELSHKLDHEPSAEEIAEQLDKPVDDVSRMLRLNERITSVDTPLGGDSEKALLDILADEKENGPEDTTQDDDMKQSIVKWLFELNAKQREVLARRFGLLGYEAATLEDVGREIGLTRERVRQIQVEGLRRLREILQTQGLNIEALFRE

B1: MicN (purified, His-tag cleaved) (natural protein, S. Typhimurium ATCC 14028S)
chain: MKEGFYWIQHNGRVQVAYYTHGVTEDLETGQTIIGVWHLTQGDDICHNGEAEILAGPLEPPI
Kd: 0.0436 µM

— publication PMC12549904 (Communications Biology, 2025)
